Measured values reported in PMC7474645.

What was measured:
Assay in all cases: FRET or BRET
[1] = target: Smoothened fused to Rluc8 (Smo-Rluc8) (UniProt Q99835)
[2] = target: thromboxane A2 receptor fused to Rluc8 (TP-Rluc8) (UniProt P21731)
[3] = target: formyl peptide 1 receptor fused to Rluc8 (FPR1) (UniProt P21462)
[4] = target: endothelin A receptor fused to Rluc8 (ETA-Rluc8) (UniProt P25101)
[5] = target: formyl peptide 2 receptor fused to Rluc8 (FPR2-Rluc8) (UniProt P25090)
Sequence of UniProt P25090 (P25090 whole entry, the tested form may be a part): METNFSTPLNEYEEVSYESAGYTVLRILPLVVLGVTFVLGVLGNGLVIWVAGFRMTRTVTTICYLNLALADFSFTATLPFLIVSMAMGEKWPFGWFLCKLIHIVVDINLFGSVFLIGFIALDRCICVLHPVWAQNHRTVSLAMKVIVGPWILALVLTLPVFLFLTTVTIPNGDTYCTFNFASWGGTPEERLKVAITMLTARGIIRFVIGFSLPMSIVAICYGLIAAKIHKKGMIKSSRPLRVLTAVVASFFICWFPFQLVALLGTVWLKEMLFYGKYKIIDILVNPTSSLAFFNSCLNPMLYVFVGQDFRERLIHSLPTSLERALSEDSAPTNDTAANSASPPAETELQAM

Sequence of UniProt P25101 (P25101 21-427): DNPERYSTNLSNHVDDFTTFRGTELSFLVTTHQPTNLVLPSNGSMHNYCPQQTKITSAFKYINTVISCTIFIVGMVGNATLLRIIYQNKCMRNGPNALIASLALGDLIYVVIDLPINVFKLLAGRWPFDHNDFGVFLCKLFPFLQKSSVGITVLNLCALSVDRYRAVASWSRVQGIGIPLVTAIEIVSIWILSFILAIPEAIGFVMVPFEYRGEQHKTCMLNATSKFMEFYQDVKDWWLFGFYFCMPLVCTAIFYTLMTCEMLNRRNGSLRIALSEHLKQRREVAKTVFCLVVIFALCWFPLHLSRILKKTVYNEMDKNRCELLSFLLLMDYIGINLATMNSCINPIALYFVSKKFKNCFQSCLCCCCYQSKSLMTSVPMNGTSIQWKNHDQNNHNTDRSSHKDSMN
Sequence of UniProt P21731 (P21731 whole entry, the tested form may be a part): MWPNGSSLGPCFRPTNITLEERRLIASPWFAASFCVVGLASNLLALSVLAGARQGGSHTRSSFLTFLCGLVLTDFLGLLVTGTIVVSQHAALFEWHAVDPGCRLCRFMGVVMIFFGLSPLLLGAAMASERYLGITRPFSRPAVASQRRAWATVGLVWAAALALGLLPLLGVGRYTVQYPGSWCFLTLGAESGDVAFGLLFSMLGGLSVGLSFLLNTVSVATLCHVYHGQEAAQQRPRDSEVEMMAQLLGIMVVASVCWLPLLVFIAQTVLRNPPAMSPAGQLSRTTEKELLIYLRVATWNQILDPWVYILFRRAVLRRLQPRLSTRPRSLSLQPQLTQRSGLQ
Sequence of UniProt Q99835 (Q99835 28-787): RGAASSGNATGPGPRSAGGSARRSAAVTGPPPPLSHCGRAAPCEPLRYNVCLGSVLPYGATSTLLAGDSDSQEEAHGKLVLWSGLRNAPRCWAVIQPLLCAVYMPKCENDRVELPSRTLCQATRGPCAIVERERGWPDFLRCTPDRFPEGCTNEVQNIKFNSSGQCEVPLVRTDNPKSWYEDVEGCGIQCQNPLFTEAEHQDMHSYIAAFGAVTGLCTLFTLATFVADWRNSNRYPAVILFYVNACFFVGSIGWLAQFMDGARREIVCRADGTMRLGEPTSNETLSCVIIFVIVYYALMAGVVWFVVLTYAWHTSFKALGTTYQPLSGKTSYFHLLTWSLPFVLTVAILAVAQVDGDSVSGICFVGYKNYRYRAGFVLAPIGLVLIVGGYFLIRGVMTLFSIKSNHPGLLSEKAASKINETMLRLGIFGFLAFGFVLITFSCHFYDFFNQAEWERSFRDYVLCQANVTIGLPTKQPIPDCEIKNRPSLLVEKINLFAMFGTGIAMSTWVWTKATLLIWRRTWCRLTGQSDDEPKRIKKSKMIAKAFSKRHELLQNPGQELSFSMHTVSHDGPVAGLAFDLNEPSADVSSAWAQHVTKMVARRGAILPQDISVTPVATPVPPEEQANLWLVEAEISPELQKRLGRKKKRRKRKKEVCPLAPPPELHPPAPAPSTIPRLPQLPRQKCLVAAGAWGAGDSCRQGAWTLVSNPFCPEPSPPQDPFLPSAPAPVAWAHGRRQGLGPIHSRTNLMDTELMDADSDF
Sequence of UniProt P21462 (P21462 whole entry, the tested form may be a part): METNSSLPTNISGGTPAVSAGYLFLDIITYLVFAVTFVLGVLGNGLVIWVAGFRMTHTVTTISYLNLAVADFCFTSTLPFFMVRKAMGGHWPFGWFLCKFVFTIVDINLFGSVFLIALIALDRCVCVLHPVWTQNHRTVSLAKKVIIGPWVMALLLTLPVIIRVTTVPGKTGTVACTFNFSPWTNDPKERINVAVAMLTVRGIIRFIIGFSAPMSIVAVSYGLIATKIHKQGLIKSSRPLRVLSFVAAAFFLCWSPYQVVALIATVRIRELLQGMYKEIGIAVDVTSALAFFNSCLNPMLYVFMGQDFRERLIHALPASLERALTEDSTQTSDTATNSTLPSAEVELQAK

| RGDP (GDP-resistance ratio) [1] | RGDP (GDP-resistance ratio) [2] | RGDP (GDP-resistance ratio) [3] | RGDP (GDP-resistance ratio) [4] | RGDP (GDP-resistance ratio) [5] | Substance |
| --- | --- | --- | --- | --- | --- |
| 1.01 | 0.55 | 0.96 | 0.66 | – | G12 heterotrimer, Gα12β1γ2-Venus (from UniProt Q03113;P62873;P59768) (complex) |
| – | – | – | – | 0.92 | G12 heterotrimer, Gα12β1γ2-Venus (from UniProt Q03113;P62873;P59768) (complex; other documents disagree on this pair) |
| – | 0.18 | – | 0.21 | – | G13 heterotrimer, Gα13β1γ2-Venus (from UniProt Q14344;P62873;P59768) (complex) |
| – | – | – | 0.29 | – | Gq heterotrimer, Gαqβ1γ2-Venus (from UniProt P50148;P62873;P59768) (complex) |
